From article PMC9040800

Test system: DctD2 D57Q (d-DctD2 mimic) (Vibrio vulnificus)
Experiment: EMSA
Settings: EMSA: 50 mM Tris-HCl pH 8.0, 20 mM KCl, 50 mM MgCl2 (so in the source), 100 mM NaCl; approx. 50 nM 32P-labeled probe; 6% native PAGE; temperature not stated

Substance: EPS-II cluster regulatory region probe (480 bp)
- binding: > 700 nM
